Columns and labels:
[1] = target: E. fergusonii BrxB WT (Escherichia fergusonii); test: native MS; collected BrxB SEC peaks exchanged into 10 mM ammonium bicarbonate, 0.5 mg/ml, ES+-ToF MS (Xevo QToF)
[2] = target: E. fergusonii BrxB WT (Escherichia fergusonii); test: SEC; analytical SEC of BrxB alone on Superdex 75 increase 10/300 GL, 10 μM, 20 mM Tris HCl pH 7.9, 150 mM NaCl; monomer and dimer

Substance: E. fergusonii BrxB WT (natural protein)
- stoichiometry N [1]: 2
- stoichiometry N [2]: 2

Source: doi:10.1101/2025.03.26.645558
